The text below walks through data of patent US20230382948A1, “DELIVERY OF ENDOTHELIAL CELL-LADEN MICROGEL ELICITS ANGIOGENESIS IN SELF-ASSEMBLING ULTRASHORT PEPTIDE HYDROGELS” (KING ABDULLAH UNIVERSITY OF SCIENCE AND TECHNOLOGY, priority 2020, published 2023).

Holding throughout (type): physicochemical
Data set [1] can be described thus: Rheological characterization of SUP bulk hydrogels. The protocol: The mechanical stiffness of the peptide hydrogels was analyzed using a TA Ares-G2 Rheometer equipped with parallel-plate geometries of 8 mm diameter at room temperature. The sample gap between the upper and the lower geometries was set at 1.8 mm. The hydrogels were prepared from 135 μL of peptide solution that was mixed with 15 μL of 10×PBS in an 8 mm i.d. poly(methyl methacrylate) (PMMA) casting ring and left for 1 day before measurement. The rings were kept inside Petri dishes at room temperature with water surrounding them and tightly sealed to avoid dehydration. To control the accuracy of the measurements, six replicates for each peptide hydrogel were prepared. The stiffness was analyzed through three successive tests, which were time sweep, frequency sweep, and amplitude sweep. Time sweep was first performed for 5 min with an angular frequency and a strain of 1 rad/s and 0.1%, respectively. A frequency sweep was subsequently performed on the sample for a range of angular frequency of 0.1-100 rad/s with the same strain of 0.1%. The tests were completed with the amplitude sweep by applying a gradual increase of strain […] at 1 rad/s angular frequency.

The nature of data set [2]: Transmission electron microscopy of nanofibers. As to conditions: TEM. The procedure:
TEM imaging was performed using a FEI Tecnai G2 Spirit Twin instrument with a 120 kV emission gun. One drop of diluted peptide hydrogel in water was placed on a carbon-coated copper grid that had been treated with glow discharge plasma prior to being used. The drop was kept on the grid for 10 min before being blotted using filter paper. The grid was stained with 2% uranyl acetate for 30 s to get better contrast. The grid was then rinsed in water to remove uranyl excess and dried for at least 1 day before imaging. The average diameter of the nanofibers was measure using hnageJ and Origin software from 100 fibers.

A short description of data set [3]: Microgel fabrication by flow-focusing microfluidics, microgel imaging (diameter, roundness). As to conditions: for Microgel average diameter: SUP solution 1.5 wt %, oil with Span 80 (2%) and sodium chloride. The protocol: Since the microgels are intended to be cell carriers, the fabrication materials were sterilized before use when possible and handled aseptically inside a biosafety cabinet (BSC) to reduce contamination risk. Milli-Q® water and hexadecane were sterilized by autoclaving at 121° C. for 20 min. Light mineral oil was sterilized by dry heating at 160° C. for 1 h. Peptide powder and sodium chloride were sterilized by UV irradiation (GE® germicidal lamp 30 W) for 30 min inside BSC. Once sterile, the peptide powder was dissolved to 27.1 mM (15 mg/mL) in sterile Milli-Q® water by vortexing for 5 min and incubated at room temperature (22° C.) for 1 h (preassembly). Span 80 was dissolved to 2% (v/v) into light mineral oil and hexadecane, independently. Sodium chloride was added to the light mineral oil+Span 80 mix and shaked to disperse the sodium chloride crystals. The peptide solution was loaded in a 1 mL syringe, while the light mineral oil with Span 80 2% (v/v) and sodium chloride 3 mg/mL were loaded in a 3 mL syringe. Both syringes were connected with the microfluidic system, and both solutions were brought to the droplet generator point by pressing the syringes manually. Then, both syringes were inserted into the pumps, and the flow rate was set at 10 μL/min for continuous phase (light mineral oil with Span 80 and sodium chloride) and 1 μL/min for dispersed phase (peptide solution). Droplet generation was monitored by on-site bright-field microscopy, and once it was stable and continuous, the droplets were collected in a tube containing light mineral oil with Span 80 2% (v/v). To confirm peptide droplet gelation, FluoSpheres® or QD were sometimes incorporated into the peptide solution during the preassembly incubation. Microgels were isolated from oil adding the same volume of hexadecane containing Span 80 (2% v/v) and centrifuged at 10 g for 5 min, and the oil layer was discarded. Microgels were washed with hexadecane plus Span 80 (2% v/v) two more times, discarding the hexadecane layer. A volume of DPBS containing Tween 20 (10% v/v) was gently added on the microgels through the collection tube walls and removed after 5 min. DPBS—Tween 20 washing was repeated 2 more times, decreasing the Tween 20 content to 1% v/v and 0.1% v/v sequentially. Finally, 250μL of DPBS was added on the microgels to keep them soaked, and they were kept on a shelf (22° C.) until further use. The microgel shape and size were checked by confocal laser scanning microscopy (CLSM).
Microgel imaging was done at each condition and time point using a CLSM Zeiss® 710 or 880 by tile scanning with 15% overlapping and online stitching to capture as many microgels as possible from the dish. The Feret diameter and roundness of each microgel was calculated using ImageJ software by manually drawing up to 59 microgel contours per condition. All statistical data analysis and microgel descriptor plotting were conducted in Origin software. To assess the effect of the treatments on the microgel diameter and roundness, a Kruskal—Wallis test with Posthoc test pairwise Mann—Whitney U tests was applied.

The mark [4] stands for this setting: after extraction to the aqueous phase (PBS).

Regarding “Ac-Ile-Val-Phe-Lys-NH2 (Ac-IVFK-NH2) [self-assembling ultrashort tetrapeptide, forms hydrogels and microgels]”, the “Linear viscoelastic (LVE) region of hydrogel, comparison” value in data set [1] (amplitude sweep, IVFK versus IVZK, FIGS. 18 and 19) was “wider”. In addition, the Single-filament thickness entry in data set [2] is on record as “around 3 nm”. In data set [3], the “Microgel swelling on extraction from the oil phase to the aqueous phase” value is 50 μm, the “Minimum concentration with many intact microgels after isolation in the aqueous phase” value is reported as 0.8 wt % and the Microgel average diameter is 300 μm. In data set [3] (setting [4]), the “Microgel roundness, average” value is given as 0.88. Also, in data set [3] (in oil), the “Microgel roundness, average” value worked out at 0.98.

Regarding “Ac-Ile-Val-Cha-Lys-NH2 (IVXK; HELM PEPTIDE1{[ac].I.V.[Cha].K.[am]}$$$$V2.0; SMILES CC[C@H](C)[C@H](NC(C)=O)C(=O)N[C@H](C(=O)N[C@@H](CC1CCCCC1)C(=O)N[C@@H](CCCCN)C(N)=O)C(C)C) [IVZK, self-assembling ultrashort tetrapeptide, Z = cyclohexylalanine, forms hydrogels and microgels]”, in data set [1] (IVZK versus IVFK hydrogels, FIG. 15), the “Mechanical stiffness of hydrogel, comparison” value is on record as “higher stiffness”. Besides, in data set [2], the Single-filament thickness result is “around 3 nm”. In data set [3], the “Microgel swelling on extraction from the oil phase to the aqueous phase” value is given as “not” and the Microgel average diameter is recorded as 350 μm. Also, in data set [3] (setting [4]), the “Microgel roundness, average” value was determined as 0.88. Also, the “Microgel roundness, average” value in data set [3] (in oil) is on record as 0.98.
